Legend:
Assay in all cases: cell-based or functional assay
PIM1 Pim-1 oncogene = PIM1 Pim-1 oncogene (UniProt P11309 1-313, limits assumed)
[1] = biological target: MAPKAPK2 Mitogen-activated protein kinase-activated protein kinase 2 (UniProt P49137 1-400, limits assumed)
GRK7 = biological target: T1, GRK7 (UniProt Q8WTQ7 1-553, limits assumed)
T1 sequence (looked up): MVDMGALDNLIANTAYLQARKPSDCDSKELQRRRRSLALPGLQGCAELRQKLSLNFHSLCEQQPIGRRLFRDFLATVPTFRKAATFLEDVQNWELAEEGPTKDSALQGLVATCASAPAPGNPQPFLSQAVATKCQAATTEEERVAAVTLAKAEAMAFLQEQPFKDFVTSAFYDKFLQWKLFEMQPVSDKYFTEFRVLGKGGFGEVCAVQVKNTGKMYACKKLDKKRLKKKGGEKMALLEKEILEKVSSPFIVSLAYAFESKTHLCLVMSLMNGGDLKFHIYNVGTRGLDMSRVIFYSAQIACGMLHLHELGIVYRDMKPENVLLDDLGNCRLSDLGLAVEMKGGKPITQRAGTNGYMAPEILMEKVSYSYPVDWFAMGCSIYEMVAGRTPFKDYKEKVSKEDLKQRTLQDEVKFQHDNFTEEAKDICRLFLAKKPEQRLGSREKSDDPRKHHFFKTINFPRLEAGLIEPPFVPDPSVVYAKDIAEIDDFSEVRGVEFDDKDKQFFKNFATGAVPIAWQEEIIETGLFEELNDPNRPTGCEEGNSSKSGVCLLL

PRKD1 (PKC mu) = biological target: T2, PRKD1 (PKC mu) (UniProt Q15139 1-912, limits assumed)
T2 sequence (looked up): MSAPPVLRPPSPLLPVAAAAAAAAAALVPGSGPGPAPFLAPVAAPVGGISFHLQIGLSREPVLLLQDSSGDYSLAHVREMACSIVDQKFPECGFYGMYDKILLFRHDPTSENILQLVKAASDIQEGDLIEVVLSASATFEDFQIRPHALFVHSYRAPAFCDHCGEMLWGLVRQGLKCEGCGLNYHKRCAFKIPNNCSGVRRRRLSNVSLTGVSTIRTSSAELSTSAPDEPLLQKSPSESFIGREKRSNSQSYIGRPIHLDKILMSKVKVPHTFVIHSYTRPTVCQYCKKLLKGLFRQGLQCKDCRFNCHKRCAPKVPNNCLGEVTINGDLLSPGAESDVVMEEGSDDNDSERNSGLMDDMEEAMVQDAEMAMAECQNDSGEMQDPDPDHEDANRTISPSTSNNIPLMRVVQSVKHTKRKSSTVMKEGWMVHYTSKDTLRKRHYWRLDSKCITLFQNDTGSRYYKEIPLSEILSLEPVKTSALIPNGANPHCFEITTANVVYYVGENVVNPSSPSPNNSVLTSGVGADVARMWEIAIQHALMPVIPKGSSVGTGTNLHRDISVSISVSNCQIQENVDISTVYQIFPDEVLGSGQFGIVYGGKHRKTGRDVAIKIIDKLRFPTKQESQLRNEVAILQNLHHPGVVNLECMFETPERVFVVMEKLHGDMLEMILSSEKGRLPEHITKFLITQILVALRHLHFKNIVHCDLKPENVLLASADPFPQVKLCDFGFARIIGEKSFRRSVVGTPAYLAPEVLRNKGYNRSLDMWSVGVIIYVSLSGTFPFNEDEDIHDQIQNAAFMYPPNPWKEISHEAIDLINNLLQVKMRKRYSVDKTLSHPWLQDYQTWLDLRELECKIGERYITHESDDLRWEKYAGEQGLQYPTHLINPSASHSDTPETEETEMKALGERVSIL

ADRBK1 (GRK2) = biological target: T3, ADRBK1 (GRK2) (UniProt P25098 1-689, limits assumed)
T3 sequence (looked up): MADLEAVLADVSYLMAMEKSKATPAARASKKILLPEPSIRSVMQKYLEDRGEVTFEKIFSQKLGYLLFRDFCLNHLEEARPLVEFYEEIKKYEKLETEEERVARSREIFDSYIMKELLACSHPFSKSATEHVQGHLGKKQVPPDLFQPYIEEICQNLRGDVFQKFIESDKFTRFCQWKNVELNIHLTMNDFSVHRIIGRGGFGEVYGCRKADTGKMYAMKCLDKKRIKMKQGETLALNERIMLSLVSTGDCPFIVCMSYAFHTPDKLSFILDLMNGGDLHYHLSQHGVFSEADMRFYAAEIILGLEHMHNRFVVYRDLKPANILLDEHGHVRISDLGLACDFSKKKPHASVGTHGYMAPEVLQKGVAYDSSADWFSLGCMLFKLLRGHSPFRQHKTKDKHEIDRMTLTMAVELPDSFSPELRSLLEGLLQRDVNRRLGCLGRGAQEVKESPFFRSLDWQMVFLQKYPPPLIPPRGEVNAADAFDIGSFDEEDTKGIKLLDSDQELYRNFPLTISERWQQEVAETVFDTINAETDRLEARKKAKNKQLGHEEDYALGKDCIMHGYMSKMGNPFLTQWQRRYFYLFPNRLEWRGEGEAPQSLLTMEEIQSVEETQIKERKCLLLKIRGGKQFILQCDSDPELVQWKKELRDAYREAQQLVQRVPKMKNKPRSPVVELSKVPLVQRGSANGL

[2] = biological target: RAF1 (cRAF) Y340D Y341D c-Raf (UniProt P04049 306-648, limits assumed)
[3] = biological target: NEK6 NIMA (never in mitosis gene a)-related kinase 6 (UniProt Q9HC98 1-313, limits assumed)
ABL1 T315I = ABL1 T315I (UniProt P00519 1-1130, limits assumed)
CSK = CSK (UniProt P41240 1-450, limits assumed)
[4] = biological target: MAP2K2 (MEK2) Mitogen-activated protein kinase kinase 2 (UniProt P36507 1-400, limits assumed)
PIM2 = PIM2 (UniProt Q9P1W9 1-311, limits assumed)
PRKCG (PKC gamma) = PRKCG (PKC gamma) (UniProt P05129 1-697, limits assumed)
Note: test concentration or dose not given here.

For SGRPPMIVWFNRPFLIAVSHTHGQTILFMAKVINPVGA [D3 peptide], the “% Inhibition mean” value (PIM1 Pim-1 oncogene) was 89%, the “% Inhibition mean” value [1] was 58% and the “% Inhibition mean” value (GRK7) was 49.9%. The “% Inhibition mean” value (PRKD1 (PKC mu)) was 80.6%, the “% Inhibition mean” value (ADRBK1 (GRK2)) was 56.1% and the “% Inhibition mean” value [2] was 94.6%. The “% Inhibition mean” value [3] was 97.4%, the “% Inhibition mean” value (ABL1 T315I) was 69.8% and the “% Inhibition mean” value (CSK) was 55.2%. For the same binder, the “% Inhibition mean” value [4] was 105%, the “% Inhibition mean” value (PIM2) was 89.9% and the “% Inhibition mean” value (PRKCG (PKC gamma)) was 81%.
